B1: cs130-IL-12/23^VHHFc (Fc fusion)
chain: ELLDPCGYISPESPVVQLHSNFTAVCVLKEKCMDYFHVNANYIVWKTNHFTIPKEQYTIINRTASSVTFTDIASLNIQLTCNILTFGQLEQNVYGITIISGLPPEKPKNLSCIVNEGKKMRCEWDGGRETHLETNFTLKSEWATHKFADCKAKRDTPTSCTVDYSTVYFVNIEVWVEAENALGKVTSDHINFDPVYKVKPNPPHNLSVINSEELSSILKLTWTNPSIKSVIILKYNIQYRTKDASTWSQIPPEDTASTRSSFTVQDLKPFTEYVFRIRCMKEDGKGYWSDWSEEASGITYEDDVQFVESGGGSVHAGGSLRLNCATSGYIYSTYCMGWFRQAPGKEREGVAHIYTNSGRTYYADSVKGRFTISQDNAKNTVYLQMNSLKPEDTAIYYCAARPSIRCASFSATEYKDWGQGTQVTVSSRENLYFQMKYLLPTAAAGLLLLAAQPAMAEVQLVESGGGLVQAGGSLRLSCAASGRTFSWSAVGWFRQAPGKEREFVAAIRWSGGSPYYADSVKDRFTISRDNAKNTVYLQMNSLRPEDTAVYLCGETSLFPTSRGSHYDTWGQGTQVTVSSGSGWSHPQFEK
B2: cs130-TNF^VHHFc (Fc fusion)
chain: ELLDPCGYISPESPVVQLHSNFTAVCVLKEKCMDYFHVNANYIVWKTNHFTIPKEQYTIINRTASSVTFTDIASLNIQLTCNILTFGQLEQNVYGITIISGLPPEKPKNLSCIVNEGKKMRCEWDGGRETHLETNFTLKSEWATHKFADCKAKRDTPTSCTVDYSTVYFVNIEVWVEAENALGKVTSDHINFDPVYKVKPNPPHNLSVINSEELSSILKLTWTNPSIKSVIILKYNIQYRTKDASTWSQIPPEDTASTRSSFTVQDLKPFTEYVFRIRCMKEDGKGYWSDWSEEASGITYEDDVQFVESGGGSVHAGGSLRLNCATSGYIYSTYCMGWFRQAPGKEREGVAHIYTNSGRTYYADSVKGRFTISQDNAKNTVYLQMNSLKPEDTAIYYCAARPSIRCASFSATEYKDWGQGTQVTVSSGGGGSGGGGSGGGGTG

Key:
Hyper IL-12 (HIL-12) [1] = target: Hyper IL-12 (HIL-12) (human); test: cell-based or functional assay
human Hyper-IL-6 (HIL-6) [2] = target: human Hyper-IL-6 (HIL-6) (human); test: cell-based or functional assay
Hyper IL-12 (HIL-12) [3] = target: T1, Hyper IL-12 (HIL-12) (human); test: SPR; Fc fusion captured on a Protein A sensor chip, cytokine injected (HIL-6, HIL-12 50 to 0.1 nM, 30 μl/min, 120 s association, 300 s dissociation); 25 °C, PBS pH 7.4, 0.05% surfactant P20; 1:1 binding model; Biacore X100; conditions: both partners purified
T1 construct: IL-12/IL-23 subunit p40, human; flexible linker; IL-12 subunit p35, human; also called hHIL-12; FLAG-tagged HIL-12

human Hyper-IL-6 (HIL-6) [4] = target: T2, human Hyper-IL-6 (HIL-6) (human); test: as above; conditions: both partners purified
T2 construct: soluble IL-6 receptor (sIL-6R), human; flexible peptide linker; Interleukin 6 (IL-6), human; also called hHIL-6; source: recombinant, produced and purified as described (27)

IC50 of inhibition of proliferation of Ba/F3-hIL-12Rβ1-hIL-12Rβ2 cells induced by 10 ng/ml HIL-12, 72 h, CellTiter-Blue (Hyper IL-12 (HIL-12) [1]) [nM]	IC50 of inhibition of proliferation of Ba/F3-gp130 cells stimulated with 150 ng/ml IL-6 and 300 ng/ml sIL-6R (IL-6 trans-signaling via gp130; separate IL-6 and sIL-6R, not the fused HIL-6) (human Hyper-IL-6 (HIL-6) [2]) [nM]	Kd (Hyper IL-12 (HIL-12) [3]) [nM]	koff (Hyper IL-12 (HIL-12) [3]) [s⁻¹]	kon (Hyper IL-12 (HIL-12) [3]) [M⁻¹ s⁻¹]	Kd (human Hyper-IL-6 (HIL-6) [4]) [nM]	koff (human Hyper-IL-6 (HIL-6) [4]) [s⁻¹]	kon (human Hyper-IL-6 (HIL-6) [4]) [M⁻¹ s⁻¹]	Binder
7.81	0.56	0.23	0.000163	710000	0.0289	7.02e-05	2.43e+06	B1
	0.51				0.0488	8.55e-05	1.75e+06	B2

Source: article PMC10652096 (The Journal of Biological Chemistry, 2023)
